Experimental findings from paper PMC6981274, “Structure and mechanism of a Type III CRISPR defence DNA nuclease activated by cyclic oligoadenylate” (Nature Communications, 2020) are described below.

In one data set the target is T1, Can1 SeMet (UniProt Q53W14 =ME+3-636+=LE, internal_change).
T1 sequence: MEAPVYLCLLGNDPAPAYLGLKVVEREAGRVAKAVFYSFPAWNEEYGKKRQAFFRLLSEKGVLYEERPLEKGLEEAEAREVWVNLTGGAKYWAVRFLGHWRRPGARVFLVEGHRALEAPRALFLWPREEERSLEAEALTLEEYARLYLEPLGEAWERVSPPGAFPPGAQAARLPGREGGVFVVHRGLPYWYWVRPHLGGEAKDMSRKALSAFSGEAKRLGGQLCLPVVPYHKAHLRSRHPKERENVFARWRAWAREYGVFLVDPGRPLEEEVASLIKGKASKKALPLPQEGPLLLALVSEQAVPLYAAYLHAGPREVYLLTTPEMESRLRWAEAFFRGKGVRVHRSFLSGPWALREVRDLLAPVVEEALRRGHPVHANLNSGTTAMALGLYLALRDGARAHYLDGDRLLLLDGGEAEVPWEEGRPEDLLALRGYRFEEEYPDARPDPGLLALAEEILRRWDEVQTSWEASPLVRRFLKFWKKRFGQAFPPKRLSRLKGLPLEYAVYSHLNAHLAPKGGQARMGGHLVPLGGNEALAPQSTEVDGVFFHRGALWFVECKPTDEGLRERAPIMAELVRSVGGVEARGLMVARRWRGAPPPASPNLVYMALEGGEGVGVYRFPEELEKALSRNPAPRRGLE
The data set is described as follows: X-ray crystallography (1.83 A); EMSA: 100 nM 32P-cA4, 20 mM MES pH 6.5, 100 mM NaCl, 1 mM EDTA, 5 mM MnCl2, 2 uM BSA, 10 min at room temperature; 15% native acrylamide, 1x TBE. Particulars: protein: recombinant; tags: N-terminal His tag removed by TEV; C-terminal Leu-Glu added by cloning; cyclic single strand of 4 nt. On the technique in general: Mobility shift assays separate free from complexed probe on a gel.

The target of a further data set is T2, Can1 wild type (UniProt Q53W14 =ME+3-636+=LE, internal_change).
T2 sequence: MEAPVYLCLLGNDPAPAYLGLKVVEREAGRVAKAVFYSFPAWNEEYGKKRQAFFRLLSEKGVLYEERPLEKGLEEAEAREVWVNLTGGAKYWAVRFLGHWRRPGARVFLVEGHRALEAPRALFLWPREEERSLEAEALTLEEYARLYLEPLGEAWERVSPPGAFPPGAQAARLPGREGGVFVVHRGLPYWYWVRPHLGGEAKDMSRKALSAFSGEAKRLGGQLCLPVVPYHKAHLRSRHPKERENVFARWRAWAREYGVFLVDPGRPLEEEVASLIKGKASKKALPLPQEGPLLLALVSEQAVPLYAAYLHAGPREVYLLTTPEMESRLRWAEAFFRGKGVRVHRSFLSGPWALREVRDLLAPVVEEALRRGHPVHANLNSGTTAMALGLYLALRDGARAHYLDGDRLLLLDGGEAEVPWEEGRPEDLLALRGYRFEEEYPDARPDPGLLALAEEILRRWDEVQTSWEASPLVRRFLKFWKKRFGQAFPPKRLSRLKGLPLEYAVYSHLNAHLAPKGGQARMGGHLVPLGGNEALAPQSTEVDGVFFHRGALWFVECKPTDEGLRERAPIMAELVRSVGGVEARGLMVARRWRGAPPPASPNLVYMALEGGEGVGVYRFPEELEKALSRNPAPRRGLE
In words: SAXS; EMSA: 100 nM 32P-cA4, 20 mM MES pH 6.5, 100 mM NaCl, 1 mM EDTA, 5 mM MnCl2, 2 uM BSA, 10 min at room temperature; 15% native acrylamide, 1x TBE. As to conditions: protein: recombinant; tags: N-terminal His tag removed by TEV; C-terminal Leu-Glu added by cloning; cyclic single strand of 4 nt.

B1: cA4 (cyclic tetra-adenylate), unlabelled (structured_RNA)
RNA: AAAA
modifications: cyclic oligoribonucleotide, no free ends
On to B1, for which the binding result with Can1 SeMet and in the data set with Can1 wild type was “binds” in each case.
